Laboratory results from patent US20070192883A1.

Legend:
[1] = biological target: TAT-028 protein on the surface of human tumor cell lines (NCI-H460, HEK293, HepG2) (human) (UniProt P80723); assay: flow cytometry on HepG2 cells; secondary antibody only, background control
[2] = biological target: TAT-028 protein on the surface of human tumor cell lines (NCI-H460, HEK293, HepG2) (human) (UniProt P80723); assay: flow cytometry on HEK293 cells; secondary antibody only, background control
[3] = biological target: TAT-028 protein on the surface of human tumor cell lines (NCI-H460, HEK293, HepG2) (human) (UniProt P80723); assay: flow cytometry on NCI-H460 cells; secondary antibody only, background control

Chain of UniProt P80723 (P80723 2-227 limits assumed): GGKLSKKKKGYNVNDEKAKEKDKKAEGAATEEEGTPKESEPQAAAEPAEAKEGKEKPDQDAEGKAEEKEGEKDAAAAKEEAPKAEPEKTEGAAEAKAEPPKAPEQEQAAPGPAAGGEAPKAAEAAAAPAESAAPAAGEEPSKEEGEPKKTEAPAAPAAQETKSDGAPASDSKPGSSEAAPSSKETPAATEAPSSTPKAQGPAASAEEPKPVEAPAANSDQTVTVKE

PE-conjugated anti-mouse IgG (antibody)
geometric mean fluorescence (geometric mean fluorescence units) [1]: 178 | geometric mean fluorescence (geometric mean fluorescence units) [2]: 124 | geometric mean fluorescence (geometric mean fluorescence units) [3]: 37
